Source: the supplement of paper PMC12338614

B1: library; numbered along this chain (parent)
chain: MEVVDPQQLGMFTEGELMSVGMDTFIHRIDSTEVIYQPRRKRAKLIGKYLMGDLLGEGSYGKVKEVLDSETLCRRAVKILKKKKLRRIPNGEANVKKEIQLLRRLRHKNVIQLVDVLYNEEKQKMYMVMEYCVCGMQEMLDSVPEKRFPVCQAHGYFCQLIDGLEYLHSQGIVHKDIKPGNLLLTTGGTLKISDLGVAEALHPFAADDTCRTSQGSPAFQPPEIANGLDTFSGFKVDIWSAGVTLYNITTGLYPFEGDNIYKLFENIGKGSYAIPGDCGPPLSDLLKGMLEYEPAKRFSIRQIRQHSWFRKKHPPAEAPVPIPPSPDTKDRWRSMTVVPYLEDLHGADEDEDLFDIEDDIIYTQDFTVPGQVPEEEASHNGQRRGLPKAVCMNGTEAAQLSTKSRAEGRAPNPARKACSASSKIRRLSACKQQ

Variants of: B1
Test: STK11 functional score (HeLa growth suppression), rescaled enrichment; synonymous median = 1, nonsense median = 0 (normalised score)
Details: with HeLa; variant type: missense
Summary of the method: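 The functional score takes the post/pre-selection log ratio, corrects it to wild type, rescales it to synonymous and nonsense medians, and merges it over codons and replicate transfections, with error from bootstrapping. Counts came from tiled gDNA amplicons sequenced on NextSeq (~2 million reads per tile). The libraries were POPCode codon-randomised, codon-optimised STK11 integrated by Bxb1 at an AAVS1 landing pad in HeLa, three regions with three transfections each.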

STK11 functional score of substitutions, site by site:
L245: Q 0.383, M 0.526, H -0.0776, E -0.0467, I 0.581, D -0.177, C 0.21, G -0.177, A 0.101, W -0.0585, K 0.475, V 0.345, R -0.0758, T -0.038, P -0.14, S -0.117, F 0.00828, Y -0.0275
T250: I 1.35, A 1.01, Y 1.31, L 1.45, E 0.89, F 1.14, K 0.0557, S 1.37, P -0.224, V 1.24, H 1.65, R 0.727, W 1.48, G 0.834, C 1.22
G233: W 1.16, Q 1.62, T 1.7, R 0.173, N 1.19, S 1.44, A 1.3, V 0.47, C 1.43, D 1.56, F 1.46, L 1.57, Y 1.04
S240: Q 0.866, N 1.11, D 0.841, R 0.823, I 0.369, M 0.927, E 1.52, G 1.05, C 1.38, H 1.08, T 1.07, W -0.126, V 0.33, A 0.891, L 0.708, P -0.0488
T249: G 0.293, E -0.289, M 1.47, W 0.0979, N 0.652, S 1.24, I 0.664, K -0.0774, R 1.28, P -0.0108, V 1.56, D -0.107, L 1.08, A 0.412, H 1.64
D229: H 0.539, P 1.68, F 0.981, E 1.03, K 0.652, V 0.388, T 1.67, M 1.28, Q 1.49, R 0.991, G 1.03, Y 0.508, S 1.01, L 1.05, W 0.347
K235: V 0.794, H 1.29, I 1.06, Y 1.19, P 1.65, G 1.28, W 1.51, L 1.24, T 0.534, A 1.65, C 1.4, S 1.67, N 0.877, Q 1.58
F231: R 1.26, I 1.62, S 0.515, G 1.17, T 1.64, E 1.24, M -0.0118, D 1.56, Y 0.865, H 0.765, P 0.959, N 1.69, W 0.409, A 1.61, C 1.33, V 0.867, L 0.842
V243: H -0.00535, R 0.16, P -0.157, S 0.561, I 1.42, G 0.469, N 0.56, A 0.996, E 0.204, W 0.598, F 0.591, D -0.0994, M 0.378, Q 1.19, L 0.714, T 1.29, C 1
G251: S 1.01, L -0.144, R 0.411, T 1.21, I 0.422, E 0.412, P 0.0226, W -0.00281, A 0.598, V -0.0264, C -0.00733, Y 0.258, F 0.127, D 0.751
T230: P 1.1, W 1.17, V 1.5, L 0.829, K 1.29, N 1.2, H 1.46, F 0.961, G 0.522, S 0.93, E 1.65, Q 1.39, A 0.88, C 1.19, M 0.971, R 1.39
W239: I -0.18, K 0.155, M 0.267, L 0.325, P -0.0966, H 0.199, Y 0.934, T -0.0973, G -0.0583, C 0.0722, D -0.00743, S 0.00373, A 0.388, V -0.13, R 0.273, E -0.254
S232: A 1.04, W 0.692, R 1.39, N 1.28, Y 0.917, E 1.36, I 1.4, M 0.515, C 1.17, V 0.841, K 1.67, Q 1.03, L 0.996, G 0.97, D 1.14, H 1.3, P 0.971
Y246: G 0.403, P -0.0491, I 1.13, F 0.678, Q 1.11, E 0.0519, L 0.818, A 1.06, C 0.451, H -0.136, W 1.15, V 0.944, R 0.128, T 0.982, D -0.149, M 1.29, S 0.254
I238: T 1.31, S 0.58, M 0.843, R -0.17, F 0.0789, N 1.22, V 1.21, C 1.39
D237: E 0.97, N 1.36, H 1.53
L252: S 1.5, V 1.3, I 1.54, W 1.42, M 0.771, F 1.07
V236: A 1.56, L 0.273, S 1.4, F 1.21, W 1.04, I 1.24, C 1.44
N247: T 0.951, C 1.15, H 1.26, V 0.824, K 0.794, R 0.936, M 0.7, D 0.827, F 0.863, G 0.808, E 1.33, S 1.3, A 1.37, I 1.16, Y 1.32, Q 1.17, W 0.698, P -0.0537, L 1.17
I248: F 0.497, M 1.24, D 0.0228, G 0.0645, V 0.854, L 1.05, R -0.248, Q 1.25, P -0.0931, C 1, A 1.15, S 0.859, Y 0.287, W 0.853, T 1.15, H -0.139, E 0.873
A241: S 0.863, P 0.702, C 1.21, D 0.383, G 0.802, T -0.298
G242: E 0.274, H 0.0155, K 0.078, P 0.0217, M -0.0974, V -0.059, T -0.128, D 0.0263, L -0.0195, S 0.0147, C -0.0194, Y -0.0296, R -0.0649, F 0.0262, I -0.186, N -0.133, A 0.823
T244: W 0.257, Y 0.127, E -0.168, H 0.0105, I 0.627, A 0.738, D -0.0204, K 0.388, M 1.38, Q -0.178, P -0.17, F 0.698, N 0.0991, S 0.613, L 1.02, R 0.00573, C 1.32, V 1.15, G 0.014
F234: W 1.44, A 1.35, L 0.75, Y 0.805, D 1.18, S 1.1, V 1.2, C 1.05, G 1.33, I 1.67, E 1.59, R 1.5
